{
  "source": "patent CN107973850A",
  "key": {"[1]": {"target": "CHO细胞表达的CSFV石门株E2蛋白 (classical swine fever virus, Shimen strain)"}, "[2]": {"target": "CSFV感染细胞的E2蛋白 (CSFV石门株病毒的E2蛋白) (classical swine fever virus, Shimen strain)", "experiment": "cell-based or functional assay"}},
  "data": [
    {"binder": "重组猪瘟病毒E2蛋白猪源化单克隆抗体rHQ06 Sw (antibody, V domains shown) VH: QVQLQQSGGGLVQPKGSLKLSCAASGFTFNNNAMDWVRQAPGKGLEWVARIRTKSNYYATSYADSVKDRFTISRDDSQSMLYLQMNNLKTEDTAIYFCVREGYYAWFAYWGQGTLVTVSA VL: DIVLTQTPSSLAVSIGEKVTMSCKSSQSLLYSRNQKNYLAWYQQKPGQFPKLLIYWASTRESGVPDRFTGSGSGTDFTLTISSVKAEDLAVYYCQQYYSYPYTFGGGTKLEIKR", "values": [
      {"measurement": "Kd", "setting": "[1]", "result": 13.1, "unit": "nM"},
      {"measurement": "kon", "setting": "[1]", "result": 98400, "unit": "M⁻¹ s⁻¹"},
      {"measurement": "中和效价 (病毒中和试验, IFA)", "setting": "[2]", "result": 12}
    ]}
  ]
}
